# In US20140087995A1 (published 2014):
# Numbered stars: 1 amine (or outer) side, 2 acyl side, 3 side chain; on linkers, the order of the positions; unused ones are H or OH. Bridge positions count the residues as written; N and C are the ends. Side chains are listed from the residue outwards. Ends that are not written are not given here. * marks the point of attachment. C20 diacid = O=C(O)CCCCCCCCCCCCCCCCCCC(=O)*; γGlu = O=C(O)[C@H](CCC(=O)[*:2])N[*:1]; AEEA = NCCOCCOCC(=O)O
# T1: human amylin receptor (amylin 3(a) receptor: human calcitonin receptor co-expressed with RAMP-3) (human, UniProt P30988 25-474; O60896 24-148, limits assumed)
# T1 sequence (looked up) 1: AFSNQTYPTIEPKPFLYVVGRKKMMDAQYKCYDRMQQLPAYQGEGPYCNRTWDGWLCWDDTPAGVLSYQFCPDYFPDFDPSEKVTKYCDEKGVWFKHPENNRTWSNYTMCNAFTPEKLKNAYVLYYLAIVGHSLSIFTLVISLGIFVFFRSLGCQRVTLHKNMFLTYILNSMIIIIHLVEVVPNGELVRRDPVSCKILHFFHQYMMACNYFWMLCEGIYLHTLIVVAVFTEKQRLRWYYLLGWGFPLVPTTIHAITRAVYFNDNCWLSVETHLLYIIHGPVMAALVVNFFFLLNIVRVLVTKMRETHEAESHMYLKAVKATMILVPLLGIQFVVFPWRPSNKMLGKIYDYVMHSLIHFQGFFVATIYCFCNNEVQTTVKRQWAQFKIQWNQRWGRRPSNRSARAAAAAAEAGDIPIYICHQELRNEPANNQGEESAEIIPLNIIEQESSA
# T1 sequence (looked up) 2: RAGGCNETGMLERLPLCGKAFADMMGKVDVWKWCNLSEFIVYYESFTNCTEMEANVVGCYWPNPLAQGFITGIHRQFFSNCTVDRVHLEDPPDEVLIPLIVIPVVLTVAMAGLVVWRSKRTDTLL
# T2: human calcitonin receptor (human, UniProt P30988 25-474)
# T2 sequence (looked up): T1 sequence (looked up) 1
# T3: rat calcitonin receptor (rat, UniProt P32214 25-516)
# T3 construct: whole, on cells; Used as membranes prepared from BHK tk'ts 13 cells transiently transfected with the rat calcitonin receptor (Assay VIII); also called rCTR; rat calcitonin (a) receptor
# T3 sequence (looked up): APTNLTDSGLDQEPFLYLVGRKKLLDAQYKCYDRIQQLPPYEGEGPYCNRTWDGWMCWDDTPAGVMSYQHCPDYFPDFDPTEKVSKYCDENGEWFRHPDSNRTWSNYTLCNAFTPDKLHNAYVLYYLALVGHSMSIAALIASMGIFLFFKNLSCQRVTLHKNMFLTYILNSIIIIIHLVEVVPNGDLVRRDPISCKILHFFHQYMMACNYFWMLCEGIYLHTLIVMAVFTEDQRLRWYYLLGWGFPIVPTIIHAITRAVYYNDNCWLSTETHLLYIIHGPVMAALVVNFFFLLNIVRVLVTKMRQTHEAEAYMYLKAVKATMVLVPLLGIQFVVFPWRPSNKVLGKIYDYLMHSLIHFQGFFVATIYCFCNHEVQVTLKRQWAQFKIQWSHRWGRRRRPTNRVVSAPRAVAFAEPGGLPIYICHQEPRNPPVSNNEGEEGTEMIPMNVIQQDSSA
# T4: rat amylin receptor (rat calcitonin receptor + rat RAMP 3) (rat, UniProt P32214 25-516; Q9JJ73 23-147)
# T4 construct: whole, on cells; Used as membranes prepared from BHK tk'ts 13 cells transiently transfected with rat calcitonin receptor and rat RAMP 3 (Assay VI); also called rAmylin-R; rat amylin 3(a) receptor
# T4 sequence (looked up) 1: T3 sequence (looked up)
# T4 sequence (looked up) 2: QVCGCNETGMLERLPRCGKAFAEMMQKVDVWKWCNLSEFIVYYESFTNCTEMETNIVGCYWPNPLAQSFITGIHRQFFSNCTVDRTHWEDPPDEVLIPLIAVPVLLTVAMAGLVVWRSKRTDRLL
# T5: rat amylin receptor (rat calcitonin receptor + rat RAMP 3) (rat, UniProt P32214 25-516; Q9JJ73 23-147)
# T5 construct: whole, on cells; also called rAmylin-R; rat amylin 3(a) receptor
# T5 sequence (looked up) 1: T3 sequence (looked up)
# T5 sequence (looked up) 2: T4 sequence (looked up) 2
# T6: rat calcitonin receptor (rat, UniProt P32214 25-516)
# T6 construct: whole, on cells; also called rCTR; rat calcitonin (a) receptor
# T6 sequence (looked up): T3 sequence (looked up)
# B1: N^ε1-[2-[2-[2-(19-carboxynonadecanoylamino)ethoxy]ethoxy]acetyl]-[His14,Arg17,Pro21,Pro27]-h-amylin (peptide)
# peptide: K([AEEA-C20 diacid])CNTATCATQRLAHFLRHSSPNFGAIPSSTNVGSNTY-NH2
# modifications: disulfide 2-7; N-terminus assumed
# SMILES: CC[C@H](C)[C@H](NC(=O)[C@H](C)NC(=O)CNC(=O)[C@H](Cc1ccccc1)NC(=O)[C@H](CC(N)=O)NC(=O)[C@@H]1CCCN1C(=O)[C@H](CO)NC(=O)[C@H](CO)NC(=O)[C@H](Cc1c[nH]cn1)NC(=O)[C@H](CCCNC(=N)N)NC(=O)[C@H](CC(C)C)NC(=O)[C@H](Cc1ccccc1)NC(=O)[C@H](Cc1c[nH]cn1)NC(=O)[C@H](C)NC(=O)[C@H](CC(C)C)NC(=O)[C@H](CCCNC(=N)N)NC(=O)[C@H](CCC(N)=O)NC(=O)[C@@H](NC(=O)[C@H](C)NC(=O)[C@@H]1CSSC[C@H](NC(=O)[C@@H](N)CCCCNC(=O)COCCOCCNC(=O)CCCCCCCCCCCCCCCCCCC(=O)O)C(=O)N[C@@H](CC(N)=O)C(=O)N[C@@H]([C@@H](C)O)C(=O)N[C@@H](C)C(=O)N[C@@H]([C@@H](C)O)C(=O)N1)[C@@H](C)O)C(=O)N1CCC[C@H]1C(=O)N[C@@H](CO)C(=O)N[C@@H](CO)C(=O)N[C@H](C(=O)N[C@@H](CC(N)=O)C(=O)N[C@H](C(=O)NCC(=O)N[C@@H](CO)C(=O)N[C@@H](CC(N)=O)C(=O)N[C@H](C(=O)N[C@@H](Cc1ccc(O)cc1)C(N)=O)[C@@H](C)O)C(C)C)[C@@H](C)O
# notes: also called compound 90
# B2: N^ε1-[(4S)-4-carboxy-4-[[(4S)-4-carboxy-4-(19-carboxynonadecanoylamino)butanoyl]amino]butanoyl]-[Asp14,Arg17,Pro21,Pro27,Arg35]-h-amylin (peptide)
# peptide: K([γGlu-γGlu-C20 diacid])CNTATCATQRLADFLRHSSPNFGAIPSSTNVGSRTY-NH2
# modifications: disulfide 2-7; N-terminus assumed
# SMILES: CC[C@H](C)[C@H](NC(=O)[C@H](C)NC(=O)CNC(=O)[C@H](Cc1ccccc1)NC(=O)[C@H](CC(N)=O)NC(=O)[C@@H]1CCCN1C(=O)[C@H](CO)NC(=O)[C@H](CO)NC(=O)[C@H](Cc1c[nH]cn1)NC(=O)[C@H](CCCNC(=N)N)NC(=O)[C@H](CC(C)C)NC(=O)[C@H](Cc1ccccc1)NC(=O)[C@H](CC(=O)O)NC(=O)[C@H](C)NC(=O)[C@H](CC(C)C)NC(=O)[C@H](CCCNC(=N)N)NC(=O)[C@H](CCC(N)=O)NC(=O)[C@@H](NC(=O)[C@H](C)NC(=O)[C@@H]1CSSC[C@H](NC(=O)[C@@H](N)CCCCNC(=O)CC[C@H](NC(=O)CC[C@H](NC(=O)CCCCCCCCCCCCCCCCCCC(=O)O)C(=O)O)C(=O)O)C(=O)N[C@@H](CC(N)=O)C(=O)N[C@@H]([C@@H](C)O)C(=O)N[C@@H](C)C(=O)N[C@@H]([C@@H](C)O)C(=O)N1)[C@@H](C)O)C(=O)N1CCC[C@H]1C(=O)N[C@@H](CO)C(=O)N[C@@H](CO)C(=O)N[C@H](C(=O)N[C@@H](CC(N)=O)C(=O)N[C@H](C(=O)NCC(=O)N[C@@H](CO)C(=O)N[C@@H](CCCNC(=N)N)C(=O)N[C@H](C(=O)N[C@@H](Cc1ccc(O)cc1)C(N)=O)[C@@H](C)O)C(C)C)[C@@H](C)O
# notes: Analogue of human amylin; also called compound 52
# B3: N^ε1-[(4S)-4-carboxy-4-[[(4S)-4-carboxy-4-(19-carboxynonadecanoylamino)butanoyl]amino]butanoyl]-[Asp14,Arg17,Pro21,Pro27,Arg35]-h-amylin (peptide)
# peptide: K([γGlu-γGlu-C20 diacid])CNTATCATQRLADFLRHSSPNFGAIPSSTNVGSRTY-NH2
# modifications: disulfide 2-7; N-terminus assumed
# SMILES: CC[C@H](C)[C@H](NC(=O)[C@H](C)NC(=O)CNC(=O)[C@H](Cc1ccccc1)NC(=O)[C@H](CC(N)=O)NC(=O)[C@@H]1CCCN1C(=O)[C@H](CO)NC(=O)[C@H](CO)NC(=O)[C@H](Cc1c[nH]cn1)NC(=O)[C@H](CCCNC(=N)N)NC(=O)[C@H](CC(C)C)NC(=O)[C@H](Cc1ccccc1)NC(=O)[C@H](CC(=O)O)NC(=O)[C@H](C)NC(=O)[C@H](CC(C)C)NC(=O)[C@H](CCCNC(=N)N)NC(=O)[C@H](CCC(N)=O)NC(=O)[C@@H](NC(=O)[C@H](C)NC(=O)[C@@H]1CSSC[C@H](NC(=O)[C@@H](N)CCCCNC(=O)CC[C@H](NC(=O)CC[C@H](NC(=O)CCCCCCCCCCCCCCCCCCC(=O)O)C(=O)O)C(=O)O)C(=O)N[C@@H](CC(N)=O)C(=O)N[C@@H]([C@@H](C)O)C(=O)N[C@@H](C)C(=O)N[C@@H]([C@@H](C)O)C(=O)N1)[C@@H](C)O)C(=O)N1CCC[C@H]1C(=O)N[C@@H](CO)C(=O)N[C@@H](CO)C(=O)N[C@H](C(=O)N[C@@H](CC(N)=O)C(=O)N[C@H](C(=O)NCC(=O)N[C@@H](CO)C(=O)N[C@@H](CCCNC(=N)N)C(=O)N[C@H](C(=O)N[C@@H](Cc1ccc(O)cc1)C(N)=O)[C@@H](C)O)C(C)C)[C@@H](C)O
# notes: synthetic analogue of human amylin; also called compound 52
# B4: N^ε1-[(4S)-4-carboxy-4-[[(4S)-4-carboxy-4-(19-carboxynonadecanoylamino)butanoyl]amino]butanoyl]-[His14,Arg17,Pro21,Pro27]-h-amylin (peptide)
# peptide: K([γGlu-γGlu-C20 diacid])CNTATCATQRLAHFLRHSSPNFGAIPSSTNVGSNTY-NH2
# modifications: disulfide 2-7; N-terminus assumed
# SMILES: CC[C@H](C)[C@H](NC(=O)[C@H](C)NC(=O)CNC(=O)[C@H](Cc1ccccc1)NC(=O)[C@H](CC(N)=O)NC(=O)[C@@H]1CCCN1C(=O)[C@H](CO)NC(=O)[C@H](CO)NC(=O)[C@H](Cc1c[nH]cn1)NC(=O)[C@H](CCCNC(=N)N)NC(=O)[C@H](CC(C)C)NC(=O)[C@H](Cc1ccccc1)NC(=O)[C@H](Cc1c[nH]cn1)NC(=O)[C@H](C)NC(=O)[C@H](CC(C)C)NC(=O)[C@H](CCCNC(=N)N)NC(=O)[C@H](CCC(N)=O)NC(=O)[C@@H](NC(=O)[C@H](C)NC(=O)[C@@H]1CSSC[C@H](NC(=O)[C@@H](N)CCCCNC(=O)CC[C@H](NC(=O)CC[C@H](NC(=O)CCCCCCCCCCCCCCCCCCC(=O)O)C(=O)O)C(=O)O)C(=O)N[C@@H](CC(N)=O)C(=O)N[C@@H]([C@@H](C)O)C(=O)N[C@@H](C)C(=O)N[C@@H]([C@@H](C)O)C(=O)N1)[C@@H](C)O)C(=O)N1CCC[C@H]1C(=O)N[C@@H](CO)C(=O)N[C@@H](CO)C(=O)N[C@H](C(=O)N[C@@H](CC(N)=O)C(=O)N[C@H](C(=O)NCC(=O)N[C@@H](CO)C(=O)N[C@@H](CC(N)=O)C(=O)N[C@H](C(=O)N[C@@H](Cc1ccc(O)cc1)C(N)=O)[C@@H](C)O)C(C)C)[C@@H](C)O
# notes: also called compound 92
# How the values were obtained:
# [1] = molecular target: T1, human amylin receptor (amylin 3(a) …); assay: cell-based or functional assay
# [2] = molecular target: T2, human calcitonin receptor; assay: cell-based or functional assay
# [3] = molecular target: T3, rat calcitonin receptor; assay: SPA competition with 125I-calcitonin, membranes of BHK cells with rat CTR (Assay VIII)
# [4] = molecular target: T4, rat amylin receptor (rat calcitonin …); assay: SPA competition with 125I-rat amylin, membranes of BHK cells with rat CTR + rat RAMP3 (Assay VI)
# Method: The binding assay was performed using scintillation proximity assay (SPA) beads (RPNQ0001) from PerkinElmer and cell membranes from the Amylin 3(a)/CRE-luc cells (as described in Assay (II)) were used. Membranes were prepared in the following way; the cells were rinsed with PBS and incubated with Versene for approximately 5 min before harvesting. The cells were flushed with PBS and the cell-suspension was centrifuged for 5 min at 1000 rpm. Cells were homogenized (ultrathurrax) in a buffer containing 20 mM Na-HEPES and 10 mM EDTA (pH 7.4) and centrifuged at 20.000 rpm for 15 min. The resulting pellet was resuspended, homogenized and centrifuged (20.000 rpm, 15 min) in a buffer containing 20 mM Na-HEPES and 0.1 mM EDTA (pH 7.4, buffer 2). The resulting pellet was resuspended in buffer 2 and protein concentration was measured (BCA protein Assay, Pierce). The homogenate was kept cold during the whole procedure. The membranes were kept at −80° C. until use. The assay was performed in a 384 well Optiplate (PerkinElmer) in a total volume of 40 ul. Membranes were mixed with SPA beads. Final concentration of membranes 35 ng/μL final and SPA beads was 0.05 mg/well. Test-compounds were dissolved in DMSO and further diluted in assay buffer (50 mM Hepes, pH 7.4, 1 mM CaCl2, 5 mM MgCl₂, 0.1% OA and 0.02% Tween20). […] The final mixture was incubated with shaking at 400 rpm for 120 min at 25° C. prior to centrifugation (1500 rpm, 10 min). Samples were analyzed on TopCounter™ (Packard). The IC₅₀ was calculated using (one site binding competition analysis) GraphPad Prism5 as a measure of receptor affinity.
# Cells were grown in DMEM with 10% FBS and 1% Pen/Strep. Approximately 48 hours after transfection, the cells were harvested and membranes were prepared.
# [5] = molecular target: T5, rat amylin receptor (rat calcitonin …); assay: SPA competition with 125I-rat amylin, membranes of BHK cells with rat calcitonin receptor + rat RAMP3 (Assay VI)
# [6] = molecular target: T6, rat calcitonin receptor; assay: SPA competition with 125I-calcitonin, membranes of BHK cells with rat calcitonin receptor (Assay VIII)
Binder,Ratio hCT/hAmylin funct. [1],hAmylin-R funct. EC50 [1],hCTR funct. EC50 [2],IC50 [3],IC50 [4],IC50 [5],IC50 [6]
B1,7.2,0.033 nM,0.236 nM,–,–,–,–
B2,–,–,–,159 nM,0.335 nM,–,–
B3,–,–,–,–,–,0.335 nM,159 nM
B4,28,0.085 nM,2.38 nM,–,–,–,–
